Source: patent US20100144847A1

Target: tropomyosin
Test: cell-based or functional assay

Which colony formation inhibition assay, A9 cells under G418 selection does the source give for GFP-CKIIα (from UniProt Q60737 1-391) here?
Its colony formation inhibition assay, A9 cells under G418 selection is greater than 2000 colonies.
